Test results as given in US20260193377A1.

What was measured:
[1] = molecular target: GCC expressed on T84 cells (UniProt P25092); test: flow cytometry on T84 cells expressing GCC, 300 nm [sic], PE-anti human Fc secondary; Blank 30.7
[2] = molecular target: GCC expressed on T84 cells (UniProt P25092); test: flow cytometry on T84 cells expressing GCC, 300 nm [sic], PE-anti human Fc secondary; Blank 15.0

GCC expressed on T84 cells, sequence (P25092 24-1073 limits assumed): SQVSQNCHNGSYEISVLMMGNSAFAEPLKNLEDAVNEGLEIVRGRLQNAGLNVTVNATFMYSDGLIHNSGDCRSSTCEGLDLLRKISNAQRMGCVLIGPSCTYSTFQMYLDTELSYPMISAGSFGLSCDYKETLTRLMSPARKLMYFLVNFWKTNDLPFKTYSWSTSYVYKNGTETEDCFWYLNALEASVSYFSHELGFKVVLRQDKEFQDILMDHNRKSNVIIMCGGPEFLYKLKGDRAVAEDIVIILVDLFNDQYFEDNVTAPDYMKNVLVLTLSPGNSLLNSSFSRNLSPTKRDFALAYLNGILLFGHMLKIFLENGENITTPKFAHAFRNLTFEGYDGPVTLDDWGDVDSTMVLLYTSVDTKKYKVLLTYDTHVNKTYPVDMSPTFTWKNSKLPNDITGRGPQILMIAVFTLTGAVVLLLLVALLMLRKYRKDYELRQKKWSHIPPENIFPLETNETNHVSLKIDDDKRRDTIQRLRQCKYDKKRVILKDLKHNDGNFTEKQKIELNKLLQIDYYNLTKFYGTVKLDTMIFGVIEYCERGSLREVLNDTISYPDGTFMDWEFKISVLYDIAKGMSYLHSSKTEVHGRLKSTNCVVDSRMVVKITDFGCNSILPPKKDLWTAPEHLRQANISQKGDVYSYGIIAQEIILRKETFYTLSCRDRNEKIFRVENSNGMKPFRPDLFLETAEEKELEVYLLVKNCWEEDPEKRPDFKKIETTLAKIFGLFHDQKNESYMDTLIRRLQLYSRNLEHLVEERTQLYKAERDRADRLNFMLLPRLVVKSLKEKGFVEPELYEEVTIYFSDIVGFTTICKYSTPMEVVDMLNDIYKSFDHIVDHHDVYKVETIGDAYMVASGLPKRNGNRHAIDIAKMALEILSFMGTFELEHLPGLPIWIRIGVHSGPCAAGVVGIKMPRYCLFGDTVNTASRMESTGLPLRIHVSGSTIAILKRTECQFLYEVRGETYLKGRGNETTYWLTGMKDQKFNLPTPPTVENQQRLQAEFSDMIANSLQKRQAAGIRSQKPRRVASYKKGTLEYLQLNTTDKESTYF

Geometric mean MFI [1]: 30.7
Geometric mean MFI [2]: 17.7
Substance: Human IgG1 isotype (antibody)
